# Assay results as given in patent US20250084434A1 (KRIYA THERAPEUTICS, published 2025).
# Target: IGF-1R, endogenous, on cultured cells (HT-1080, Colo205, peripheral blood fibrocytes) (human, UniProt P08069 31-1367)
# Experiment: cell-based or functional assay
# Sequence of IGF-1R, endogenous, on cultured cells (HT-1080, Colo205, peripheral blood fibrocytes) (P08069 31-1367): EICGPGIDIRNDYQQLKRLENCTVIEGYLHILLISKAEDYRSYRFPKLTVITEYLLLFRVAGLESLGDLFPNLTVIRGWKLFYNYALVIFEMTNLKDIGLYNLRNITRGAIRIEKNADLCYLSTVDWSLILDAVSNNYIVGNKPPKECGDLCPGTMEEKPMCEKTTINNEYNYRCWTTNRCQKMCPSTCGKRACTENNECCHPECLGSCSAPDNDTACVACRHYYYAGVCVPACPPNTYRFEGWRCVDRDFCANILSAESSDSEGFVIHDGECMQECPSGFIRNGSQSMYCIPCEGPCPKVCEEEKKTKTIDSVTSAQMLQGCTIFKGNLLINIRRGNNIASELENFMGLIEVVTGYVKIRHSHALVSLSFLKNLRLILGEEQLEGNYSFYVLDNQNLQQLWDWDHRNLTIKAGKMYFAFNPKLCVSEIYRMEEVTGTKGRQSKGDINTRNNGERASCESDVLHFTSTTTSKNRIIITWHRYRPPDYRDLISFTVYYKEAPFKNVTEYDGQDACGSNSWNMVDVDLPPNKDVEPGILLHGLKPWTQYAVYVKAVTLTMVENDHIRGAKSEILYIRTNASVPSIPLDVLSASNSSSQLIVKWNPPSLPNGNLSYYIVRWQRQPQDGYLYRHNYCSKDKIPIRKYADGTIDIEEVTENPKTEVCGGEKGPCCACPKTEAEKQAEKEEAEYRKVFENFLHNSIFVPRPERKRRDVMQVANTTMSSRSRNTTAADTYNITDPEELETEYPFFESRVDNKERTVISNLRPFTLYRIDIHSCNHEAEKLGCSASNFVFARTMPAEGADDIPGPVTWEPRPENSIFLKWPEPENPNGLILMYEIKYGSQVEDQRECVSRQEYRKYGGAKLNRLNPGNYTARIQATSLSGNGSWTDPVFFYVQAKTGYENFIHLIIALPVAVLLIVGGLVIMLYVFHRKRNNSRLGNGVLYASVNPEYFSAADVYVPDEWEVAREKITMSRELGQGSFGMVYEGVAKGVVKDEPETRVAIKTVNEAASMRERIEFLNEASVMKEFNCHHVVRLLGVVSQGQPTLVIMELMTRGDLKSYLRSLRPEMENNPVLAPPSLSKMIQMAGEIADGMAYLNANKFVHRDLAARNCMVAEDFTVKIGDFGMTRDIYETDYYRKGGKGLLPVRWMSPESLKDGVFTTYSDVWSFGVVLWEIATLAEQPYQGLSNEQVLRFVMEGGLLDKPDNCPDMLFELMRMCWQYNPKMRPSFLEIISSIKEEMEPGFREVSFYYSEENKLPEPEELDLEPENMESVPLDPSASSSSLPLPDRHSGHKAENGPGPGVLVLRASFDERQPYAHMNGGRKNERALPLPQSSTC
binder,measurement,value
"vectorized Teprotumumab (secreted from HEK-293 cells transfected with teprotumumab plasmid construct (antibody, V domains shown) VH: QVELVESGGGVVQPGRSQRLSCAASGFTFSSYGMHWVRQAPGKGLEWVAIIWFDGSSTYYADSVRGRFTISRDNSKNTLYLQMNSLRAEDTAVYFCARELGRRYFDLWGRGTLVSVSS VL: EIVLTQSPATLSLSPGERATLSCRASQSVSSYLAWYQQKPGQAPRLLIYDASKRATGIPARFSGSGSGTDFTLTISSLEPEDFAVYYCQQRSKWPPWTFGQGTKVESKR","reduction in IGF-1R activation (IGF-1R phosphorylation) by IGF in HT-1080 cells, MSD Insulin Signaling Panel (Phospho Protein)",4 fold
